Results from US20230051715A1 (MABWELL THERAPEUTICS, published 2023).

T1: cynomolgus monkey C1s (produced in house) (cynomolgus monkey, UniProt P09871 16-685 (human entry), limits assumed)
T1 construct: also called CyC1s
T1 chain: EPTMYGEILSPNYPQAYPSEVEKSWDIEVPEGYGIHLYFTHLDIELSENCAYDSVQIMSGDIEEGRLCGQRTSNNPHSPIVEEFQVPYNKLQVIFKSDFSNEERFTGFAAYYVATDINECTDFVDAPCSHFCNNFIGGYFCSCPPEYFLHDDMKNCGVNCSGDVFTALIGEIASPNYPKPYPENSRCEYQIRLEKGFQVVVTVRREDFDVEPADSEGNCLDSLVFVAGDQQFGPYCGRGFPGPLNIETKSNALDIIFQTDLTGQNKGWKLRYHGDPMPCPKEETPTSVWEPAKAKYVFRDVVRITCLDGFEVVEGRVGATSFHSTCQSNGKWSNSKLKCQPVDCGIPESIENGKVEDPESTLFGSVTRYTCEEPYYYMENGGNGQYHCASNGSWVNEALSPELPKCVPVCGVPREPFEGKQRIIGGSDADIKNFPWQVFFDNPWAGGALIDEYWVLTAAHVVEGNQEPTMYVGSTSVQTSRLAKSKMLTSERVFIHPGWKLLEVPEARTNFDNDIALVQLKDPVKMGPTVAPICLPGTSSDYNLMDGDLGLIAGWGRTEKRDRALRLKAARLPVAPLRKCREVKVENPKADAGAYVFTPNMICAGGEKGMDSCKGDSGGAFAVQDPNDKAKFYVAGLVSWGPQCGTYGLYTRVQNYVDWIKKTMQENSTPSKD

T2: full-length human C1s (produced in house) (human, UniProt P09871 16-688)
T2 construct: Called full-length; Partly auto-cleaved at R422-I423 on blots; also called HuC1s; Hu C1s
T2 sequence: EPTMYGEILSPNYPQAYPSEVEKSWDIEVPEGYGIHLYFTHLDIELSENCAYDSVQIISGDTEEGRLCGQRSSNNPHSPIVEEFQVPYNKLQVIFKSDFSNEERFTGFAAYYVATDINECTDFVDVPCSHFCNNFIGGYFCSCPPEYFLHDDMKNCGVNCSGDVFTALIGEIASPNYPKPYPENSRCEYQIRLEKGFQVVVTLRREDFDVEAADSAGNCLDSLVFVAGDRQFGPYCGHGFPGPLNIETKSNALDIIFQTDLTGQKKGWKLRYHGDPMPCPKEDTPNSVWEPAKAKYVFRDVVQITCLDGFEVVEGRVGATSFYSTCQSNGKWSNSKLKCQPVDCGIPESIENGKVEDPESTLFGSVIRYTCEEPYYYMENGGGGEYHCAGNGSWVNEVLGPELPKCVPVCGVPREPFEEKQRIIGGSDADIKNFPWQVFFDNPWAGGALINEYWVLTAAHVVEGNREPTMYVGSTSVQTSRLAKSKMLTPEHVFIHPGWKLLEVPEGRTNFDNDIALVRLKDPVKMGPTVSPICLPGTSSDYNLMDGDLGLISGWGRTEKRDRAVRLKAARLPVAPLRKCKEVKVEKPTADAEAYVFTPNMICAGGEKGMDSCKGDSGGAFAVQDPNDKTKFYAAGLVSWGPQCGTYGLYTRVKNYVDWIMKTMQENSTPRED


Tests used:
[1] = biological target: T1, cynomolgus monkey C1s (produced in …); experiment: ELISA, plate coated with 200 ng/well CyC1s, OD450nm
Description: The next morning, plates were blocked with SuperBlock T20 blocking buffer (Thermo Scientific 37536) for 1 h with gentle shaking. Then, various concentrations of anti-C1s antibodies diluted in SuperBlock T20 blocking buffer were added to the plates and incubated for 1 h with gentle shaking. Mouse IgG (Sigma-Aldrich I5381) and Human IgG1 (BioXCell BP0297) were used as negative controls. The plates were washed before incubating with HRP conjugated secondary antibodies diluted in SuperBlock T20 blocking buffer (goat anti-mouse IgG (H+L) cross-adsorbed secondary antibody HRP (Invitrogen G-21040) or goat anti-human IgG antibody, HRP conjugate (Millipore AP309P)) for 1 h with gentle shaking. At last, the plates were washed and color developed with ELISA liquid substrate (Sigma-Aldrich), followed by stopping the reaction with addition of the same volume of […] 1M H₂SO₄. Bound antibody was measured by absorbance at OD₄₅₀ₙₘ.

[2] = biological target: T2, full-length human C1s (produced in …); experiment: ELISA, plate coated with 200 ng/well full-length HuC1s, OD450nm
Description: ELISA was carried out by first coating 96-well plates with 200 ng/well of full-length or truncated C1s proteins overnight. The next morning, plates were blocked with SuperBlock T20 blocking buffer (Thermo Scientific 37536) for 1 h with gentle shaking. Then, various concentrations of anti-C1s antibodies diluted in SuperBlock T20 blocking buffer were added to the plates and incubated for 1 h with gentle shaking. Mouse IgG (Sigma-Aldrich 15381) and human IgG1 (BioXCell BP0297) were used as negative controls. The plates were washed before incubating with HRP conjugated secondary antibodies diluted in SuperBlock T20 blocking buffer (goat anti-mouse IgG (H+L) cross-adsorbed secondary antibody HRP (Invitrogen G-21040) or goat anti-human IgG antibody, HRP conjugate (Millipore AP309P)) for 1 h with gentle shaking. At last, the plates were washed and color developed with ELISA liquid HRP substrate (Sigma-Aldrich), followed by stopping the reaction with addition of 1M H₂SO₄ in the same volume as the ELISA liquid substrate. Bound antibody was measured by absorbance at OD₄₅₀ₙₘ.

| EC50 [1] | EC50 [2] | Binder |
| --- | --- | --- |
| 0.015 µg/mL | 0.005 µg/mL | Anti-C1s antibody hz2-7(H1L2) (antibody, V domains shown, Humanized, human IgG1 / kappa; also called hz2-7(1L2)) VH: EVQLLESGGGLVQPGGSLRLSCAASGFTFSNYFMNWVRQAPGKGLEWVSEIRLKFTNYATHYADSVKGRFTISRDDSKSTLYLQMNSLRAEDTAVYYCTRDYGSRNGYFDYWGQGTLVTVSS VL: DIVMTQTPLSLPVTPGEPASISCRSSKSLLHSNGNTFLYWFLQKPGQSPQLLIYRMSNLASGVPDRFSGSGSGTDFTLKISRVEAEDVGVYYCMQHLEYPYTFGGGTKLEIKR |
| 0.011 µg/mL | 0.006 µg/mL | Anti-C1s antibody 2-7 (antibody, human IgG1, kappa, V domains shown, the HC/LC entries may hold it too; also called clone 2-7) VH: EVKLEESGGGLVPPGGSMKLSCVASGFTFSNYFMNWVRQSPEKGLEWVAEIRLKFTNYATHYAESVEGRFTISRDDSKSSVYLQMNNLRAEDTGIYYCTRDYGSRNGYFDYWGQGTTLTVSS VL: DIVMTQAAPSVPVTPGESVSISCRSSKSLLHSNGNTFLYWFLQRPGQSPQLLIYRMSNLASGVPDRFSGSGSGTAFTLRVSRVEAEDVGIYYCMQHLEYPYTFGGGTKLEIKT |
| 0.01 µg/mL | – | Anti-C1s antibody hz2-8 (H1L2 G80A/T82A) (antibody, V domains shown, Humanized variant with G80A and T82A in HC CDR2 (already in the entry), human IgG1 / kappa) VH: QVQLVQSGAEVKKPGASVKVSCKASGFNIKEYYMHWVRQAPEQGLEWMGWIDPENADAIYAQKFQGRVTITADTSTNTAYMELSSLRSEDTAVYYCARSRLFFAYWGQGTLVTVSS VL: DIQMTQSPKSLSASVGDRVTITCRASQDVRTALDWYQQKPGQSPKLLIYSASYRYSGVPSRFSGSGSGTDFTLTISSLQPEDFATYYCQQQYTTPYTFGQGTKLEIKR |
| 0.012 µg/mL | 0.008 µg/mL | Anti-C1s antibody 2-8 (antibody, V domains shown, the HC/LC entries may hold it too; also called clone 2-8) VH: EVQLQQSGAELVRPGALVKLSCKASGFNIKEYYMHWVKQRPEQGLEWIGWIDPENGDTIYDPKFQGKASITADTSSNTAYLQLSSLTSEDTAVYYCARSRLFFAYWGQGTLVTVSA VL: DIVMTQSHKFMSTSVGDRVSFTCKASQDVRTAVDWYQQKPGQSPKLLIYSASYRYTGVPDRFTGTGSGTDFTFTISSVQAEDLAVYFCQQQYTTPYTFGGGTKLEIKT |
